Results as given in EP4335867A1 (Cellemedy Co., Ltd, dated 2024).

Biological target: T1, human transferrin receptor-Fc tag standard (human, UniProt P02786 89-760, limits assumed)
T1 construct: Coated on a 96 well plate at 2 ug/ml; also called hTfR; not shown: Fc tag
Test: ELISA on plate-bound hTfR-Fc with anti-His detection; Kd calculated from an expected saturation point, since the curve was not saturated

T1 sequence (P02786 89-760 limits assumed): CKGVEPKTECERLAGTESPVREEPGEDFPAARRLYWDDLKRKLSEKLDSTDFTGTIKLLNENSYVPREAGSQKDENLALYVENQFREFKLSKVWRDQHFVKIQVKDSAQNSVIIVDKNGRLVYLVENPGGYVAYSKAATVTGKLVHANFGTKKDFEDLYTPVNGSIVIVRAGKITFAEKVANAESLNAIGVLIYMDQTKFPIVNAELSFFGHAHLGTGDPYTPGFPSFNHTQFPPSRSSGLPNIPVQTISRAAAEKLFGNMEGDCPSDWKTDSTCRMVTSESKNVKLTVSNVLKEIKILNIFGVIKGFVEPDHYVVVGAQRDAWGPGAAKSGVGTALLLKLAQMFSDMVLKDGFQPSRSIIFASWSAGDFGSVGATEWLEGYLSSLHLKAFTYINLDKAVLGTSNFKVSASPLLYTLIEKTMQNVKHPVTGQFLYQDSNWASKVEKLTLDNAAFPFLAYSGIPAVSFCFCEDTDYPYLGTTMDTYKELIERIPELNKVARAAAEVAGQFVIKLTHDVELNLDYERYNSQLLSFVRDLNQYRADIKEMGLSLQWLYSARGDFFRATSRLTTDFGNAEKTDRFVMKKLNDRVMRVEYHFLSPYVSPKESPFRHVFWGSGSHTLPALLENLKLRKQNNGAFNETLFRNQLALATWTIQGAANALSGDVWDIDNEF

B1: huHF_Mutant2-dual (designed binder)
chain: MTTASTSQVRQNYHAASEAAINAQINLELYASYVYLSMSYYFDRDDVALKNFAKYFLHQSHEEREHAEKLMKLQNQRGGRIALADIQKPDCDDGGSYGSLYAFDIWESGLNAMECALHLEKNVNQSLLALHALATAKNDPHLCDFIETHYLNEQVKAIKELGDHVTNLRKMGAPESGLAEYLFDKHTLGDSDNESMPSFITLASLSTWEGYFDF
notes: Spherical nanoparticle of 24 self-assembled monomers, made in E. coli; not shown: A hexa-His tag is present (Ni-NTA purification, anti-His detection)
- Kd: ~4.4 µM
